{"source": "patent US20240209341A1", "about": "(University of California, published 2024)", "key": {"[1]": {"target": "T1, recombinant TLR4 ectodomain, His-tagged (Sino Biological) (human, UniProt O00206 24-631)", "T1 construct": "extracellular domain; Bought protein; also called eTLR4; eTLR4-His; not shown: His-tag", "T1 sequence (O00206 24-631)": "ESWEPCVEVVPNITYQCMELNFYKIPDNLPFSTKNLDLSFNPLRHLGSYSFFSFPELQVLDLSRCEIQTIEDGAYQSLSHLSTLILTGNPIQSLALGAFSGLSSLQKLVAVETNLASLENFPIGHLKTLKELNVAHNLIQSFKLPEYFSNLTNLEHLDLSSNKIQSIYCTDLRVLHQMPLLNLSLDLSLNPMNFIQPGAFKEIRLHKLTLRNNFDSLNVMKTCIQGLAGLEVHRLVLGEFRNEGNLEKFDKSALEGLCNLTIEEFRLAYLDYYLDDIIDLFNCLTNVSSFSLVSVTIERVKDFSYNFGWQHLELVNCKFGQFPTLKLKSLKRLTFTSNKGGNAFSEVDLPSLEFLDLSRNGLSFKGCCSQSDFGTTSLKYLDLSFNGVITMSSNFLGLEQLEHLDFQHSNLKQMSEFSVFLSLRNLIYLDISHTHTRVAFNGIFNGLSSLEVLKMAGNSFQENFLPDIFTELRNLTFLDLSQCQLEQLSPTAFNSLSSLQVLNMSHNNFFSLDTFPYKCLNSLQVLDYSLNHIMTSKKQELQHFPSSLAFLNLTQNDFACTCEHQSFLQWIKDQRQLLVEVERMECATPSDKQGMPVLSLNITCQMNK", "experiment": "pull-down with BE-1 anti-AIBP antibody, immunoblot", "procedure": "(§1) Co-immunoprecipitation assays for TLR4 binding. Pull down assay of eTLR4 and wtAIBP or mutAIBP in test tube was performed by mixing 1 μg of eTLR4 (Sino Biological) and AIBP in PBS containing 0.5% Triton X-100 and incubating for 1 hour at room temperature. Samples were precleared by adding Protein A/G Sepharose beads at room temperature for 30 min, followed by addition of 1 μg of BE-1 monoclonal anti-AIBP antibody and incubation for 2 hours. Protein A/G Sepharose beads were added and incubated for an additional one hour, followed by 5 washes with PBS containing 0.5% Triton X-100 and immunoblot of samples.\nFIG. 9: Identifies sequence motifs that contribute to AIBP binding to TLR4: FIG. 9. Identification of the domain in the AIBP molecule responsible for TLR4 binding. A, Human AIBP: signal peptide (aa 1-24), previously uncharacterized N-terminal domain (aa 25-51), and YjeF_N domain (aa 52-288). B, Flag-tagged deletion mutants of human AIBP were co-expressed in HEK293 cells with the Flag-tagged TLR4 ectodomain (eTLR4). Cell lysates were immunoprecipitated (IP) with an anti-TLR4 antibody and immunoblotted (IB) with an anti-Flag antibody. […] IP of eTLR4 and wtAIBP or mutAIBP in a test tube with an anti-AIBP antibody; blot and quantification from 3 independent experiments (D). […]"}, "[2]": {"target": "T2, human APOA1 (human, UniProt P02647 25-267)", "T2 construct": "also called ApoA-I", "T2 sequence (P02647 25-267 limits assumed)": "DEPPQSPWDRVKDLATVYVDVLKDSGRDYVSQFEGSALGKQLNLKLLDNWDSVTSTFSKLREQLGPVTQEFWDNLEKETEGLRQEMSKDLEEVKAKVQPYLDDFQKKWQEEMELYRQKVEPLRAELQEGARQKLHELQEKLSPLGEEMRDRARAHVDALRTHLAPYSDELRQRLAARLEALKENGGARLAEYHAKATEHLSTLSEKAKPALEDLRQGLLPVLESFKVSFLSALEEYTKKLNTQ", "experiment": "ELISA, AIBP-coated plates incubated with 5 µg/ml human APOA1", "procedure": "ELISA binding assays. To assess AIBP-TLR4 binding, 96-well plates were coated with 5 μg/ml of eTLR4, washed three times with PBS containing 0.05% Tween-20, blocked with PBS containing 1% BSA, and incubated with wtAIBP or mutAIBP, followed by 2 μg/ml of a biotinylated BE-1 anti-AIBP monoclonal antibody. To assess AIBP-APOA1 binding, plates were coated with BSA, wtAIBP or mutAIBP, washed, blocked, and incubated with 5 μg/ml of human APOA1 (a gift from Dmitri Sviridov, Baker Heart and Diabetes Institute, Melbourne, Australia), followed by a biotinylated anti-APOA1 antibody (Academy Bio-Medical Company, RRID:AB_1238781). In both assays, neutravidin-AP was added and incubated for 45 minutes at room temperature, followed by LumiPhos 530 (Lumigen) for 90 min, and luminescence was measured using a luminescence plate reader (BioTek, Winooski, Vermont).\nFIG. 9: Identifies sequence motifs that contribute to AIBP binding to TLR4: FIG. 9. Identification of the domain in the AIBP molecule responsible for TLR4 binding. A, Human AIBP: signal peptide (aa 1-24), previously uncharacterized N-terminal domain (aa 25-51), and YjeF_N domain (aa 52-288). […] IP of eTLR4 and wtAIBP or mutAIBP in a test tube with an anti-AIBP antibody; blot and quantification from 3 independent experiments (D). […]"}, "[3]": {"target": "T1, recombinant TLR4 ectodomain, His-tagged …", "experiment": "co-immunoprecipitation with recombinant ectodomain of TLR4; proteins from E. coli"}, "[4]": {"target": "T1, recombinant TLR4 ectodomain, His-tagged …", "experiment": "test-tube co-IP with anti-TLR4 antibody, immunoblot with anti-His antibody", "excerpt": "FIG. 9: Identifies sequence motifs that contribute to AIBP binding to TLR4: FIG. 9. Identification of the domain in the AIBP molecule responsible for TLR4 binding. A, Human AIBP: signal peptide (aa 1-24), previously uncharacterized N-terminal domain (aa 25-51), and YjeF_N domain (aa 52-288). B, Flag-tagged deletion mutants of human AIBP were co-expressed in HEK293 cells with the Flag-tagged TLR4 ectodomain (eTLR4). Cell lysates were immunoprecipitated (IP) with an anti-TLR4 antibody and immunoblotted (IB) with an anti-Flag antibody. C, His-tagged human (hu), mouse (mo) and zebrafish (zf) AIBP, all lacking the signal peptide, expressed in a baculovirus/insect cell system, were combined in a test-tube with eTLR4-His, followed by IP with an anti-TLR4 antibody and IB with an anti-His antibody. D-H, Binding of His-tagged wild type (wt, 25-288 aa) and the deletion mutant (mut, 52-288 aa) human AIBP to eTLR4, APOA1 and microglia. IP of eTLR4 and wtAIBP or mutAIBP in a test tube with an anti-AIBP antibody; blot and quantification from 3 independent experiments (D). ELISA with plates coated with eTLR4 and incubated with wtAIBP or mutAIBP (n=3) (E). ELISA with plates coated with BSA, wtAIBP or mutAIBP and incubated with APOA1 (F). […]"}, "[5]": {"target": "T1, recombinant TLR4 ectodomain, His-tagged …", "experiment": "pull-down with anti-AIBP antibody, western blot with anti-his antibody", "procedure": "as §1\nA pulldown assay was performed using compounds as provided herein. Compounds 3, 7, 8 or 9 and other constructs described in FIGS. 13 and 14 were purified from either a baculovirus (BD Bioscience) or CHO (ExpiCHO, Expression Systems, ThermoFisher) cell expression system and incubated with TLR4 protein (Sino biological). Pull-down was performed with anti-AIBP antibody described. Bound TLR4 to AIBP was detected by western blot with an anti-his antibody (both modified AIBP and TLR4 have his-tag). Detailed experimental information is provided in example 1 as to pull down method."}}}
{"binder": "His-tagged deletion mutant (mut, 52-288 aa) human AIBP (other, Baculovirus/insect cell expression, pAcHLT-C vector; also called mutAIBP; mut AIBP; not shown: N-terminal His-tag of the pAcHLT-C vector) MASTVVKYLSQEEAQAVDQELFNEYQFSVDQLMELAGLSCATAIAKAYPPTSMSRSPPTVLVICGPGNNGGDGLVCARHLKLFGYEPTIYYPKRPNKPLFTALVTQCQKMDIPFLGEMPAEPMTIDELYELVVDAIFGFSFKGDVREPFHSILSVLKGLTVPIASIDIPSGWDVEKGNAGGIQPDLLISLTAPKKSATQFTGRYHYLGGRFVPPALEKKYQLNLPPYPDTECVYRLQ", "values": [{"measurement": "binding result", "setting": "[1]", "value": "no binding"}, {"measurement": "binding result", "setting": "[2]", "value": "binds"}]}
{"binder": "d51 AIBP-his (expressed in E. coli) (other, not shown: his tag, read from the name as C-terminal) MASTVVKYLSQEEAQAVDQELFNEYQFSVDQLMELAGLSCATAIAKAYPPTSMSRSPPTVLVICGPGNNGGDGLVCARHLKLFGYEPTIYYPKRPNKPLFTALVTQCQKMDIPFLGEMPAEPMTIDELYELVVDAIFGFSFKGDVREPFHSILSVLKGLTVPIASIDIPSGWDVEKGNAGGIQPDLLISLTAPKKSATQFTGRYHYLGGRFVPPALEKKYQLNLPPYPDTECVYRLQ", "values": [{"measurement": "binding result", "setting": "[3]", "value": "no binding"}]}
{"binder": "His-tagged zebrafish (zf) AIBP lacking the signal peptide (other, UniProt Q6DHK1 29-283, looked up, mature; also called zebrafish wild type AIBP; not shown: N-terminal His-tag of the pAcHLT-C vector) SSAASNIYSKHLTHRPTCTMANTGVKYLGQEEAQQIDEELFSDFSFSVDQLMELAGLSCATAVAKGYPVTSLLKSPARVLVICGPGNNGGDGLVCARHLKLFGYEPSVLYPKRPNKQLFQNLSIQCQKMEIPFLTEMPEADLIDEAYSLVVDAIFGFSFKGAVREPFGEILSQLKKITVPIASVDIPSGWDVEKGCPDGIQPDMLISLTAPKKSAALFKGRFHFLGGRFVPPVLEQKYQLNLPQYPGTECVFQLN", "values": [{"measurement": "binding result", "setting": "[4]", "value": "no binding"}]}
{"binder": "cleaved His-d24 AIBP (other, also called putative cleavage product of His-d24 AIBP) GSPGLDGICSRQTIACRSGPTWWGPQRLNSGGRWDSEVMASTVVKYLSQEEAQAVDQELFNEYQFSVDQLMELAGLSCATAIAKAYPPTSMSRSPPTVLVICGPGNNGGDGLVCARHLKLFGYEPTIYYPKRPNKPLFTALVTQCQKMDIPFLGEMPAEPMTIDELYELVVDAIFGFSFKGDVREPFHSILSVLKGLTVPIASIDIPSGWDVEKGNAGGIQPDLLISLTAPKKSATQFTGRYHYLGGRFVPPALEKKYQLNLPPYPDTECVYRLQ", "values": [{"measurement": "binding result", "setting": "[5]", "value": "no binding"}]}
